Values of other authors in article PMC5979445.

Target: Calmodulin (UniProt P0DP23)

Kd: 54 nM
Substance: TRPV1 CaM binding domain (from UniProt Q8NER1)
